Data as given in US20160102316A1, “STRESS TOLERANT PLANTS” (CONSEJO SUPERIOR DE INVESTIGACIONES CIENTIFICAS(CSIC), priority 2013, published 2016).

B3: full length PYL8 (receptor, Arabidopsis, UniProt Q9FGM1 1-188, looked up)
chain: MEANGIENLTNPNQEREFIRRHHKHELVDNQCSSTLVKHINAPVHIVWSLVRRFDQPQKYKPFISRCVVKGNMEIGTVREVDVKSGLPATRSTERLELLDDNEHILSIRIVGGDHRLKNYSSIISLHPETIEGRIGTLVIESFVVDVPEGNTKDETCYFVEALIKCNLKSLADISERLAVQDTTESRV
notes: Gal4-domain fusion in the yeast two-hybrid assays; also called ABA receptor PYL8
B6: DDA1 fused to the binding domain of GAL4 (pGBKT7-DDA1) (other)
chain: MKLLSSIEQACDICRLKKLKCSKEKPKCAKCLKNNWECRYSPKTKRSPLTRAHLTEVESRLERLEQLFLLIFPREDLDMILKMDSLQDIKALLTGLFVQDNVNKDAVTDRLASVETDMPLTLRQHRISATSSSEESSNKGQRQLTVSMASILGDLPSFDPHNFSQHRPSDPSNPSKMVPTTYRPTHNRTLPPPDQVITTEVKNILIRSFYQRAEEKLRPKRPATDHLAAEHVNKHFRAASSSSSTQGL
notes: Other vector-encoded residues of pGBKT7 are not described; also called AtDDA1; DET1-, DDB1-Associated 1

Tests used:
[1] = target: B6; assay: yeast two-hybrid
Description: (§1) (A) Y187 yeast cells transformed with pGBKT7-DDA1 were used to screen a cDNA library prepared from Arabidopsis seedlings in the pGADT7 vector and transformed into AH109 cells. Positive clones included truncated versions of ABA receptors PYL4 and PYL9. Yeast clones were grown in selective media containing different concentrations of 3AT (ranging 0.5 to 5 […]). Empty pGADT7 vector was used as negative control. (B-C) DDA1 interaction with full length PYL8 (B), PYL4, PYL5, PYL6 or PYL9 (C) was assessed using yeast two hybrid experiments as in (A). Physical association between PYL8 and other components of the CDD complex (DDB1a, DDB1b, DET1 and COP10) was also tested (B).
(§2) The molecular basis of DDA1 activity is unknown. To get insights into its mechanism of action, we searched for proteins that interact with DDA1. With this aim, we conducted a yeast two-hybrid screen using DDA1 as bait. Thus, the full-length coding sequence of DDA1 fused to the binding domain of GAL4 was used to screen a cDNA library prepared from Arabidopsis seedlings. From over 15 million clones screened, 200 were identified as potential DDA1 interactors. Among them, 20 were subsequently confirmed by retransformation into yeast. […] We aimed to determine whether DDA1 interacts with full length PYL4 and PYL9 and with other Arabidopsis PYR/PYL/RCAR family members using yeast two hybrid assays.
(§3) The full length DDA1 cDNA was cloned into the pGBKT7 (Gal4 DNA binding domain, BD; Clontech). […] To confirm protein interactions, plasmids were co-transformed into Saccharomyces cerevisiae AH109 cells, following standard heat-shock protocols (Chini et al., 2007).

full length PYL8 = target: B3; assay: yeast two-hybrid (FIG. 4B)
Description: as §1
(§4) The full length DDA1 cDNA was cloned into the pGBKT7 (Gal4 DNA binding domain, BD; Clontech). […] To confirm protein interactions, plasmids were co-transformed into Saccharomyces cerevisiae AH109 cells, following standard heat-shock protocols (Chini et al., 2007). Successfully transformed colonies were identified on yeast synthetic drop-out lacking Leu and Trp; these colonies were resuspended in water and transferred to selective media lacking Ade, His, Leu and Trp. Plates without His were supplemented with different concentrations of 3-amino 1,2,4-triazole (3AT; ranging 0.5-10 mM). Yeast cells were incubated at 30° C. during 6 days. Empty vectors were co-transformed as negative controls. To test the DDA1 interaction with specific DDB1a domains, DDB1a truncated versions were generated and cloned into the pGADT7 vector as follows: BPA (aa 16-350), BPB (aa 387-704), BPA+BPB (aa 16-704), BPC (aa 704-1002) and BPB+BPC (aa 350-1002). Full length DDB1a was used as a positive control.

DET1 [2] = target: T1, DET1 (Arabidopsis, UniProt P48732 1-543); assay: yeast two-hybrid (FIG. 4B)
T1 construct: Endogenous protein in the TAP; also called DEETIOLATED 1
T1 sequence (looked up): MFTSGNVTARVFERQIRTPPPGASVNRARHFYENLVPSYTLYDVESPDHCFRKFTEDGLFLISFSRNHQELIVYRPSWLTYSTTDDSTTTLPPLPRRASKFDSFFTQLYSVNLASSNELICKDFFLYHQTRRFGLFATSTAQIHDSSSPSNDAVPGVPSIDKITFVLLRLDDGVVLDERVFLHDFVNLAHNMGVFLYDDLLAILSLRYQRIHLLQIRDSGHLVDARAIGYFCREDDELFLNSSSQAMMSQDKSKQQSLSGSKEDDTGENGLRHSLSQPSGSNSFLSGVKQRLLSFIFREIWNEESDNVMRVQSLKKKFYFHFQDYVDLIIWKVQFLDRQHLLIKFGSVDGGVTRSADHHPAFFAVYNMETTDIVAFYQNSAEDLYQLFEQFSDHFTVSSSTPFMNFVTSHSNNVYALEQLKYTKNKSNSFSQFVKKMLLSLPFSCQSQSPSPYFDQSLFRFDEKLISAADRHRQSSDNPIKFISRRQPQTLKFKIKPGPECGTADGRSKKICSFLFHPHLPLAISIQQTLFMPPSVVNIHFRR
Description: as §1, §4

DDB1b = target: T2, DDB1b (Arabidopsis, UniProt O49552 1-1088); assay: yeast two-hybrid (FIG. 4B)
T2 construct: Endogenous protein in the TAP; also called DDB1 proteins
T2 sequence (looked up): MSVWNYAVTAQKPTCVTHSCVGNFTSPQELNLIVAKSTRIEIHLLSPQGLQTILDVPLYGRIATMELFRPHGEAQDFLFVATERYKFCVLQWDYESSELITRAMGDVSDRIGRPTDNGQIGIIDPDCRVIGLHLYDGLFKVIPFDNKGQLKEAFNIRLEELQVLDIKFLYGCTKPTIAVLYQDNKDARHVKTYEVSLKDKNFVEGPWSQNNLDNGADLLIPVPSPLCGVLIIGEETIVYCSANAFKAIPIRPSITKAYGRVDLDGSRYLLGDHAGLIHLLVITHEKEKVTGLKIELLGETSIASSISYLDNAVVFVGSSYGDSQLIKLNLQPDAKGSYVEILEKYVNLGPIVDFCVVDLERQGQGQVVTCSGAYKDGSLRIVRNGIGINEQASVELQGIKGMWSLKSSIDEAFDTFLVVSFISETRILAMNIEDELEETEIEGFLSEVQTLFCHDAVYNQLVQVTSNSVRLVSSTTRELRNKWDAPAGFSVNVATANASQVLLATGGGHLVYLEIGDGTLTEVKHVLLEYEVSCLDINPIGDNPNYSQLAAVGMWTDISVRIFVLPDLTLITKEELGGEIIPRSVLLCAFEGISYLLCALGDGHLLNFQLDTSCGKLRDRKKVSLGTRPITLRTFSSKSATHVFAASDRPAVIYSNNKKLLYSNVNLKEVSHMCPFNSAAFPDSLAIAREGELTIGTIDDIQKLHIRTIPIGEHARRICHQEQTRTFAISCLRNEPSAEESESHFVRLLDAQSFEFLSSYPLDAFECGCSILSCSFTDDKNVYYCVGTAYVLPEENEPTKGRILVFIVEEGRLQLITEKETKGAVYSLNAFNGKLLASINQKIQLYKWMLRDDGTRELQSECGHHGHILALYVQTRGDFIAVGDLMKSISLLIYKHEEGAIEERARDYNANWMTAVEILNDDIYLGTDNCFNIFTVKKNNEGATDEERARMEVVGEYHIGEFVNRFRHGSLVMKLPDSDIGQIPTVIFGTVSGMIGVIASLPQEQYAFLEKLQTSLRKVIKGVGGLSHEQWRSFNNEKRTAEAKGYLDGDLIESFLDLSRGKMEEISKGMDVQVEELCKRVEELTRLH
Description: as §1, §4

DDB1a = target: T3, DDB1a (Arabidopsis, UniProt Q9M0V3 1-1088); assay: yeast two-hybrid (FIG. 4B)
T3 construct: Endogenous protein in the TAP from Arabidopsis cell cultures; also called DDB1 proteins
T3 sequence (looked up): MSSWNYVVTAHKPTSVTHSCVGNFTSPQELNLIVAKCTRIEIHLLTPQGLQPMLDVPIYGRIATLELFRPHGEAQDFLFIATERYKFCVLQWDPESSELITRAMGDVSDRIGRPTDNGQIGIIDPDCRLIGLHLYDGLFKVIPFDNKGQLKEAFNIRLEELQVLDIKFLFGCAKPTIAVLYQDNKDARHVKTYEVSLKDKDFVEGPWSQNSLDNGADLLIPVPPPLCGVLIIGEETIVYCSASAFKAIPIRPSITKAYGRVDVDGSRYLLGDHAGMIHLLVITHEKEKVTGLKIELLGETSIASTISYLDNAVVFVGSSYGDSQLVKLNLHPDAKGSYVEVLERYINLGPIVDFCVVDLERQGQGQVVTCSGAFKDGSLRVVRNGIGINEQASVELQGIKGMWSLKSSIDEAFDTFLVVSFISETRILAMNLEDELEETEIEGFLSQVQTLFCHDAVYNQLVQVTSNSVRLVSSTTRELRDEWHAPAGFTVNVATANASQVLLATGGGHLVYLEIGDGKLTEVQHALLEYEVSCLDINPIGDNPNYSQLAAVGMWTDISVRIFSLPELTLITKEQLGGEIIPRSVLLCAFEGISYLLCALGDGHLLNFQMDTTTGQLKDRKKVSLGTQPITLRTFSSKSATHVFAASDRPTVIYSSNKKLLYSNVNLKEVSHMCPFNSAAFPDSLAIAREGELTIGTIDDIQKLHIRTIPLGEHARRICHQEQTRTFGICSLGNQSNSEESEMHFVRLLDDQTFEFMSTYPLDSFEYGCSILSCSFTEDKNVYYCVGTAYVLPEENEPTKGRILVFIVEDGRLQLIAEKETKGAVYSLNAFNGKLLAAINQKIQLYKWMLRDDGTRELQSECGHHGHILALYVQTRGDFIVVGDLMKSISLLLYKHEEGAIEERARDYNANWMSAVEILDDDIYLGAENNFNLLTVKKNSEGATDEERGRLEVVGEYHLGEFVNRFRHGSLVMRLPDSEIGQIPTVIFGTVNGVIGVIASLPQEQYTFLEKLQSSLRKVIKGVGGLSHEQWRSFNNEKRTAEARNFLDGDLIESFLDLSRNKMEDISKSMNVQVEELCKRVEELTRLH
Description: as §1, §4

YFPN:PYL8 = target: T4, YFPN:PYL8 (Arabidopsis, UniProt Q9FGM1 1-188); assay: BiFC in N. benthamiana epidermal cells
T4 construct: BiFC construct expressed transiently in N. benthamiana leaves; also called PYL8 fusion with the N-portion of YFP; not shown: N-portion of the yellow fluorescent protein (YFP)
T4 sequence (looked up): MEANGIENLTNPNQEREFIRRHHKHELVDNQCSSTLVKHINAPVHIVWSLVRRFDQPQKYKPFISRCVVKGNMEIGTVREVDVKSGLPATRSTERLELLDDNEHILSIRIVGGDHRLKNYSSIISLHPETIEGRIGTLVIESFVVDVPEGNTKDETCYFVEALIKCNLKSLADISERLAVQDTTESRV
Description: To confirm that DDA1 and PYL8 interact in planta, we performed bimolecular fluorescence complementation (BiFC) assays. N. benthamiana leaves were coinfiltrated with Agrobacterium tumefaciens cells to express DDA1 and PYL8 fusions with the Nor C-portions of the yellow fluorescent protein (YFP). The infiltrated leaves were analyzed under the confocal fluorescence microscope 3 d after infiltration.
YFPN:PYL8/DDA1:YFPC were co-infiltrated into the abaxial surface of 3-week-old N. benthamiana plants as described (Voinnet et al., 2003). The p19 protein was used to suppress gene silencing. The empty vectors were used as negative controls. Fluorescence was visualized in epidermal cells of leaves after 3 d of infiltration using a Leica sp5 confocal microscope. Nuclei were visualized after submerging the leaves in a DAPI solution (1 μg mL-1 DAPI in 100 mM phosphate buffer, 0.5% Triton X-100).

DET1 [3] = target: T1, DET1; assay: yeast two-hybrid
Description: as §1, §2, §3

B1: PYL5 (receptor, Arabidopsis, UniProt Q9FLB1 1-203, looked up)
chain: MRSPVQLQHGSDATNGFHTLQPHDQTDGPIKRVCLTRGMHVPEHVAMHHTHDVGPDQCCSSVVQMIHAPPESVWALVRRFDNPKVYKNFIRQCRIVQGDGLHVGDLREVMVVSGLPAVSSTERLEILDEERHVISFSVVGGDHRLKNYRSVTTLHASDDEGTVVVESYIVDVPPGNTEEETLSFVDTIVRCNLQSLARSTNRQ
binding result [1]: no binding

B2: COP10 (other, Arabidopsis, UniProt Q9LJD7 1-182, looked up)
chain: MMTPGGSGRLRPLPTAMYAGYSGTASSWVAKTSVSASGKRIQREMAELNIDPPPDCSAGPKGDNLYHWIATIIGPSGTPYEGGIFFLDIIFPSDYPFKPPKLVFKTRIYHCNVDTAGDLSVNILRDSWSPALTITKVLQAIRSIFLKPEPYSPALPVIARLYLTDREKHDEVAKEWTLRFAK
notes: Endogenous protein in the TAP; also called CONSTITUTIVE PHOTOMORPHOGENIC10
binding result (full length PYL8): no binding | binding result [1]: no binding

B3
binding result (DET1 [2]): no binding | binding result (DDB1b): no binding | binding result (DDB1a): no binding

B4: PYL6 (receptor, Arabidopsis, UniProt Q8S8E3 1-215, looked up)
chain: MPTSIQFQRSSTAAEAANATVRNYPHHHQKQVQKVSLTRGMADVPEHVELSHTHVVGPSQCFSVVVQDVEAPVSTVWSILSRFEHPQAYKHFVKSCHVVIGDGREVGSVREVRVVSGLPAAFSLERLEIMDDDRHVISFSVVGGDHRLMNYKSVTTVHESEEDSDGKKRTRVVESYVVDVPAGNDKEETCSFADTIVRCNLQSLAKLAENTSKFS
binding result [1]: no binding

B5: DDA1:YFPC (other)
chain: MASILGDLPSFDPHNFSQHRPSDPSNPSKMVPTTYRPTHNRTLPPPDQVITTEVKNILIRSFYQRAEEKLRPKRPATDHLAAEHVNKHFRAASSSSSTQGL
notes: BiFC construct expressed transiently in N. benthamiana leaves; also called DDA1 fusion with the C-portion of YFP; not shown: C-portion of the yellow fluorescent protein (YFP)
binding result (YFPN:PYL8): binds

B6
binding result (DET1 [3]): no binding
